Results taken from patent publication US20240101645A1 (HENRY M JACKSON FOUNDATION FOR THE ADVANCEMENT OF MILITARY …, published 2024).

Experiments:
[1] = target: T1, HCoV-NL63 spike antigens (bead panel) (HCoV-NL63, UniProt Q6Q1S2 19-1296); experiment: multiplex bead assay
T1 sequence: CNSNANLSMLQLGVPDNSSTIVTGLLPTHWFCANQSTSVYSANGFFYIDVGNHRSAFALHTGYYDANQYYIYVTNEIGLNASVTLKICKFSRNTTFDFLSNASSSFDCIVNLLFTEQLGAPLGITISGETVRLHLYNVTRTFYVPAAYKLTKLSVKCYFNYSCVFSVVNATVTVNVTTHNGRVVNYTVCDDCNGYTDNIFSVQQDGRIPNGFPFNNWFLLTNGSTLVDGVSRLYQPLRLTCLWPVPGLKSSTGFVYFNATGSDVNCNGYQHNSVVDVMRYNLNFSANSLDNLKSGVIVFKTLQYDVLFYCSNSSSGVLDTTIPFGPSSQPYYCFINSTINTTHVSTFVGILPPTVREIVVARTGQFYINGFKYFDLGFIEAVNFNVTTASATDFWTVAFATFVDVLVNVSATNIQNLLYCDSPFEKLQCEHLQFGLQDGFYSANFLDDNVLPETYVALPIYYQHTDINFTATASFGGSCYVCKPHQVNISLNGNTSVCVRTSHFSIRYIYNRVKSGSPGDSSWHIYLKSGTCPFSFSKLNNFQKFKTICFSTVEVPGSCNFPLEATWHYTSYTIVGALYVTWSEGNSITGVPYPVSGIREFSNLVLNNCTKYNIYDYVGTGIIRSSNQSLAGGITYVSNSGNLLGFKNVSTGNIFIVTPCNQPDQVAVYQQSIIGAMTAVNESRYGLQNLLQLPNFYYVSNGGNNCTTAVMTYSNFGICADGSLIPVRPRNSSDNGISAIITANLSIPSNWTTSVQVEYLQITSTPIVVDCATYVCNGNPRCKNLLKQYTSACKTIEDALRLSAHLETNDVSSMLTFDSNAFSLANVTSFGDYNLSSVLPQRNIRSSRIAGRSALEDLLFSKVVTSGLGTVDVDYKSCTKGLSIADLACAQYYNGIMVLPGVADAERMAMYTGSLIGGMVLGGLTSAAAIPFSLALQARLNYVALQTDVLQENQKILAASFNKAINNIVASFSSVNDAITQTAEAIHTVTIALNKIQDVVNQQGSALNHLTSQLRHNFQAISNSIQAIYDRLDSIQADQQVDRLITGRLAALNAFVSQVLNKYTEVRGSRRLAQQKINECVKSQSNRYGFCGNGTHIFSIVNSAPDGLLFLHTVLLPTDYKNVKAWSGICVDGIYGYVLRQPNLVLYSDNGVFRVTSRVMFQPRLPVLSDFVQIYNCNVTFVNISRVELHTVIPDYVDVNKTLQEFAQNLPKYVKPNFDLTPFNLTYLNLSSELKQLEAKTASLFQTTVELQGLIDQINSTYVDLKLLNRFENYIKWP

[2] = target: T2, HCoV-OC43 spike antigens (bead panel) (HCoV-OC43, UniProt P36334 14-1297); experiment: multiplex bead assay
T2 sequence: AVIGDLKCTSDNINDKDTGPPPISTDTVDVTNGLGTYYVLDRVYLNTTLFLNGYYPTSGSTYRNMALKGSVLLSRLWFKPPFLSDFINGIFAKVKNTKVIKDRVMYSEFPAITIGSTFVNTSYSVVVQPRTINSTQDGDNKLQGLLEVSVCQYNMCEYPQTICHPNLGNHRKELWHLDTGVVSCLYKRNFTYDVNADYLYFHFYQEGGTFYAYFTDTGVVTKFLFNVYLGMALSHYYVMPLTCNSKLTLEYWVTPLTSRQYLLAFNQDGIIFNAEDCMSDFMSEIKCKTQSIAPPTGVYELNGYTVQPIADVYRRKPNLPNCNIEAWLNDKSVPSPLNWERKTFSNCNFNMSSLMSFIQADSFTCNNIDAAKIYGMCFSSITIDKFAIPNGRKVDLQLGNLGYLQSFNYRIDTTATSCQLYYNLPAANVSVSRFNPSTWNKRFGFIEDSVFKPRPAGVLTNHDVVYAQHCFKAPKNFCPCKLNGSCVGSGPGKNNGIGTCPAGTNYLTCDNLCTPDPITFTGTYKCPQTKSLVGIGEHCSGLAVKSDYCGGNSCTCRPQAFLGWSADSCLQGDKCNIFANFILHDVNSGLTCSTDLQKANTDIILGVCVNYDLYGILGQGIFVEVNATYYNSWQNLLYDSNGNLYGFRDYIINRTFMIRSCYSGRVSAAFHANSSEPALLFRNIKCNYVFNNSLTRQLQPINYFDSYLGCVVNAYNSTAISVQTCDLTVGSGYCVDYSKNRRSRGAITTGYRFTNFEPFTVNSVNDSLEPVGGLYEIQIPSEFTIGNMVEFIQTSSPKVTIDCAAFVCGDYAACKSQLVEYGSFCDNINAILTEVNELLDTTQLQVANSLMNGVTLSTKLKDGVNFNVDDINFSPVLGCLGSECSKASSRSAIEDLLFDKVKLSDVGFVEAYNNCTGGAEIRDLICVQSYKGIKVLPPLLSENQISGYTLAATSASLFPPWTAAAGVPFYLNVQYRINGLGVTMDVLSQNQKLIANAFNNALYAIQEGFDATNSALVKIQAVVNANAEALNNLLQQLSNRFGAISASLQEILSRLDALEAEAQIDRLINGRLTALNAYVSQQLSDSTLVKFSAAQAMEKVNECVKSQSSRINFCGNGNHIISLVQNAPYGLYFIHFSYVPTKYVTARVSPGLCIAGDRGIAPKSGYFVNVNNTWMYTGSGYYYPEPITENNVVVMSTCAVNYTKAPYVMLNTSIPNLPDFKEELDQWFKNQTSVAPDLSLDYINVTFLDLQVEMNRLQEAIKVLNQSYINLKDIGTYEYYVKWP

Row | Binder | binding result [1] | binding result [2]
1 | COV_2093 (antibody, V domains shown, human IgG1) VH: EVQLVESGGGLVQPGGSLRLSCAASGFMFNRFWMSWVRQAPGKGLEWVTNIKQDGSEKNYVDSVKGRFTISRDNAKNSLYLQMNSLRAEDTAVYYCARDGLYYDFRSPSPFYGMDVWGQGTTVTVSS VL: DIQMTQSPSSLSASVGDRVTITCRASQSISSYLNWYQHKSGKAPKLLIYAASRLQSGVPSRFSGSGSGTDFTLTIVSLQPEDLATYYCQQSYSTPRTFGGGTKVEIKR | no binding | no binding
2 | COV_1166 (antibody, V domains shown, human IgG1) VH: EVQLVESGGGLVQPGGSLRLSCAVSGFTFRSFWMSWVRQTPGKGLEWVANIKEDGSEKYYVDSVKGRFTISRDNAKNSLYLQMNSLRAEDTAVYYCAREGRWELLGFAFDIWGQGTMVTVSS VL: not shown | no binding | no binding
3 | COV_2004 (antibody, V domains shown, human IgG1) VH: QVQLVQSGAEVKKPGASVKVSCKASGYTFTGYYMHWVRQAPGQGLEWMGRINPSSGGTNYAQKFQGRVTMTRDTSISTAYMELSSLRSDDTAVYYCATDGDDGENWFDPWGQGTLVIVSS VL: DIQMTQSPSSLSASVGDRVTITCRASQGISSWLAWYQQKPEKAPKSLIYAASSLQSGVPSRFSGSGSGTDFTLTISSLQPEDFATYYCQQYNSYPYTFGQGTKLEIK | no binding | 
4 | COV_1151 (antibody, V domains shown, human IgG1) VH: QVQVQQWGAGLLKPSETLSLTCAVYGGSFNNYYWSWIRQPPGKGLEWIGEINHSGSTNYNPSLMSRVTISVDTSKNQFSLKLTSVTAADTAVYFCARGLPVTTFFSSYYGMDVWGQGTTVTVSS VL: EIVLTQSPGTLSLSPGERATLSCRASQSVSRTYLAWYQQKPGQAPRLLIYGASSRATGIPDRFSGSGSGTDFTLTISRLEPEDFAVYYCQHYGSSPWTFGQGTKVEIRR | no binding | no binding
5 | COV_1149 (antibody, V domains shown, human IgG1) VH: QVQLVESGGGVVQPGRSLRLSCAASGFTFSSYGMHWVRQAPGKGLEWVAVISYDGSNKYYADSVKGRFTISRDNSKNTLYLQMNSLRAEDTAVYYCAKTGGGYSYGLGNVWGQGTLVTVSS VL: QSALTQPASVSGSPGQSITISCTGTSSDVGGYNYVSWYQQHPGKAPKLMIYDVSNRPSGVSNRFSGSKSGNTASLTISGLQAEDEADYYCSSYTSSSTLVVFGGGTKLTVLG | no binding | no binding
6 | COV_2077 (antibody, V domains shown, human IgG1) VH: QVQLQESGPGLVKPSETLSLTCTVSGGSISSYSWSWIRQPPGKGLEWIGYIYYSGSTNYNPSLKSRVTISVDTSKNQFSLKLSSVTAADTAVYYCARESMGRYSLELRQPESAFDYWGRGTLVTVSS VL: not shown | no binding | no binding
7 | COV_2008 (antibody, V domains shown, human IgG1) VH: QVRVVQSGAEVKNPGASVKVSCKVSGYTLTELSIHWVRQAPGNGLEWMGGFDPEDGETIYAQKFQGRVTMTEDTSTDTAYMELSSLRSDDTAVYYCATAGAITGTPRNFYYYYGMDVWGQGTTVTVSS VL: not shown | no binding | no binding
8 | COV_2056 (SEQ ID NO:792/797) (antibody, V domains shown) VH: EVQLVESGGGVVQPGRSLRLSCAASGFTFSIYGMHWVRQAPGKGLEWVALISYDGTNKYYADSVKGRFSISRDDSKNTLYLQMNSLRPEDTAVYYCAKVLMMGDSSGFSLGDAFDIWGQGTMVTVSS VL: DIQMTQSPSSVSASVGDRVTITCRASQGISNWLAWYQQKPGKAPKLLIYAASSLQSGVPSRFSGSVSGTDFTLTISSLQPEDFATYYCQQANSFPLTFGGGTKVDIKR | no binding | no binding
9 | COV_1170 (antibody, V domains shown, human IgG1) VH: QVQLVESGGGVVQPGRSLRLSCAASGFTFSTYAMHWVRQAPGKGLEWVALISYDGSNKYYADSVKGRFTISRDNSKNTLDLQMNSLRAEDTAVYYCARSLGGYRTGFDYWGQGTLVTVSS VL: DIQLTQSPSFLSASVGDRVTITCRASQGISSYLAWYQQKPGKAPKLLIYAASTLQSGVPSRFSGSGSGTEFTLTISSLQPEDFATYYCQQLNSYPPFTFGPGTKVDIKR | no binding | no binding
10 | COV_2048 (antibody, V domains shown, human IgG1) VH: QVQLQESGPGLVKPSETLSLTCTVSGGSISNTSYYWGWIRQPPGKGLEWIGSIYRSGSTYYNPSLKSRVTISIDTSKNQFTLKLSSVTAADTAVYYCARDYYGDYSAKPMEYWGQGTLVTVSS VL: QSALTQPRSVSGSPGQSVTISCTGTSSDVGGYNYVSWYQQHPGKAPKLLIYDVSKRPSGVPDRFSGSKSGNTASLTISGLQAEDEADYYCCSYAGSYVVFGGGAKLTVLG | no binding | no binding
11 | COV_1172 (antibody, V domains shown, human IgG1) VH: QVQLQESGPGLVKPSETLSLTCTVSGGSIRSYYWSWIRQPPGKGLEWIGYIYYSGSTNYSPSLKSRVTISVDTSKNQFSLKLNSVTAADTAVYYCARRGLGYCSGDSCSNAFDIWGQGTMVTVSS VL: DIQMTQSPSSLSASVGDRVTITCRASQSISSYLNWYQQKPGRAPELLIYDASSLQSGVPSGFSGSGSGTDFTLTISSLQPEDFATYYCQQSYSTPFTFGPGTKVDIKR | no binding | no binding
12 | COV_1201 (antibody, V domains shown, human IgG1) VH: QVQLVQSGAEVKKPGASMKVSCKASGYTFTGYYIHWVRQAPGQGLEWMGRINPNSGGTNYAQKFQGRVTMTRDTSISTAYMELSRLRSDDTAVYYCAREYYYVPYGMDVWGQGTTVTVSS VL: QSALTQPASVSGSPGQSITISCTGTSSDVGGYNFVSWYQHHPGKAPKLMIYEVSNRPSGVSNRFSGSKSGNTASLTISGLQAEDEADYYCSSYTSSSTYVFGTGTKVTVL | no binding | no binding
13 | COV_1144 (antibody, V domains shown, human IgG1) VH: EVQLVESGGGLVQPGGSLRLSCAASGFTFRSFWMSWVRQAPGKGLEWVANIKEDASEKHYVDPVKGRFTISRDNAKNSLYLQLNSLRAEDMAVYYCARVGRGYCTNGLCYTAFEYWGQGTLVTVSS VL: DIQMTQSPSSLSASVGDRVTITCRTSQSISNYLNWYQQKPGKAPKLLIYAASSLQSGVPSRFSGSGSGTDFTLTISSLQPEDFATYYCQQSYSTAWTFGQGTKVEIRR | no binding | no binding
